One substance from article PMC10995199, “Architecture and regulation of filamentous human cystathionine beta-synthase” (Nature Communications, 2024) can be followed below.

This assay deals with human cystathionine beta-synthase regulatory domain alone with the loop deletion (CBS^RDΔ516–525) (human) (UniProt P35520). Briefly: SEC + native gel or EMSA; control constructs in analytical Superose 6 gel filtration and clear-native and blue-native PAGE (Supplementary Fig. 2); self-association. On the technique in general: Mobility shift assays separate free from complexed probe on a gel.

One may read the stoichiometry N as the number of molecules, sites or subunits per partner or assembly. Take “human cystathionine beta-synthase regulatory domain alone with the loop deletion (CBS^RDΔ516–525) (from UniProt P35520 406-515) (domain or fragment)”: the stoichiometry N came out at 2.
